In patent US20250115677A1, “Anti-CEA Antibody Drug Conjugates and Methods of Use” (BeiGene Switzerland GmbH, priority 2022, published 2025):
Positions count from the first letter of the chain named. Names may count otherwise.

How the values were obtained:
MKN45 cells = experiment: Payload sensitivity of MKN45 cells; assay type: cell-based, human; conditions: Homo sapiens, MKN-45, […]
Protocol: At Day 0, cells were harvested with 0.25% trypsin-EDTA, plated at 5,000 cells/well in 96-well plates (655090, Greiner), and incubated at 37° C., 5% CO2 overnight. At Day 1, payload compounds were added (5× dilution) into plates. Cell and compound mixtures were incubated at 37° C., 5% CO2 for 6 days. Survival cell signaling was collected at Day 6 with 100 μL of detection reagent (G7573, Promega®); signal was read by Tecan Spark®. Data were analyzed by GraphPad Prism 9.0.0. All killing concentrations were duplicated or triplicated (Table 21 and FIG. 16). “SABC” refers to specific antibody binding capacity.

[1] = biological target: T1, huCEA surface protein (LOVO cells) (Homo sapiens, UniProt P06731); experiment: Flow cytometry binding of affinity matured humanized BGA7592 variants to LOVO cells
T1 construct: host or cells: LOVO
T1 sequence (P06731 35-676): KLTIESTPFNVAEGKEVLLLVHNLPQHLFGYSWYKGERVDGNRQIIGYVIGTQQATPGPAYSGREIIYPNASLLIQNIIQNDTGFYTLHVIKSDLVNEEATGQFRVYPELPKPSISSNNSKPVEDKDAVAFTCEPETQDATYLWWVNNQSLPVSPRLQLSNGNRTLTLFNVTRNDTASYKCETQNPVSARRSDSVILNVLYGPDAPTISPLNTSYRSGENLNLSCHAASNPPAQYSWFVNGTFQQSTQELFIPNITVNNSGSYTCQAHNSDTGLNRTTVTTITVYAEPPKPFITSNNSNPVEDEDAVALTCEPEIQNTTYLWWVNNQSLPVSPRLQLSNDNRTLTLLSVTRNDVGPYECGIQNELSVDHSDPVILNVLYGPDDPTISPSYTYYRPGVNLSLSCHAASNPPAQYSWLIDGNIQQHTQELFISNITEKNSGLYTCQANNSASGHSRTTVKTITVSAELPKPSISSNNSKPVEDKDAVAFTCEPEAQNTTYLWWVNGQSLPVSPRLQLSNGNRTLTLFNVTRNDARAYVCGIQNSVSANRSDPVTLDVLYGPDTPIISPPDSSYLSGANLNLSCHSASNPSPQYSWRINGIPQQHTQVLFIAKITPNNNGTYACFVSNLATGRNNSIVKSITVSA
Protocol: (§1) Affinity comparison of BGA7592-1F (BGA5366) and other affinity matured clones was made by SPR assay (Table 9) using BIAcore™ T-200 (GE Life Sciences) and flow cytometry (FIG. 7). For this experiment, anti-human IgG (Fc) antibody was immobilized on an activated CM5 biosensor chip (Cat. No. BR100839, GE Life Sciences). Anti-CEA antibodies were flowed over the chip surface and captured by anti-human Fab antibody. Then a serial dilution (1.37 nM to 333 nM) of CHIM was flowed over the chip surface and changes in surface plasmon resonance signals were analyzed to calculate the association rates (kon) and dissociation rates (koff) by using the one-to-one Langmuir binding model (BIA Evaluation Software, GE Life Sciences). For flow cytometry, CEA-expressing cells (10′ cells/well) were incubated with various concentrations of purified affinity-matured antibodies, followed by binding with Alexa Fluro-647-labeled anti-hu IgG Fc antibody (Cat. No. 409320, BioLegend, USA). Cell fluorescence was quantified using a flow cytometer (Guava easyCyte™ 8HT, Merck-Millipore, USA). The equilibrium dissociation constant (KD) was calculated as the ratio koff/kon.

CHIM [2] = biological target: T2, CHIM (Homo sapiens, UniProt P06731, A174T/A211G/A239V/A261S/A267P/C12H/D173N/E253A/E283V/F203L/F272R/F277P/F63I/H123Q/H61N/H9C/I100T/I112V/I113T/I13V/I230T/I80V/INS244IISP/K155N/K214E/L18V/L245P/L62R/N182G/N204S/N246D/N288K/P266S/P287A/Q16K/Q78L/R139H/R17E/R198M/R224N/R250L/R77S/S228P/S280H/T171V/T206K/T210A/T217I/T247S/T276I/V221A/V273I/V291P/V55A/W11L); experiment: SPR affinity comparison of affinity matured humanized BGA7592 variants on CHIM; assay type: binding; conditions: Table 9, SPR on CHIM
T2 construct: CEACAM6 N-terminal part (fusion partner); 6xHis (C); made in house; host or cells: HEK293-based mammalian cell expression system
T2 sequence (P06731 with tags, fused parts or gaps H9C/W11L/C12H/I13V/Q16K/R17E/L18V/V55A/H61N/L62R/F63I/R77S/Q78L/I80V/I100T/I112V/I113T/H123Q/R139H/K155N/T171V/D173N/A174T/N182G/R198M/F203L/N204S/T206K/T210A/A211G/K214E/T217I/V221A/R224N/S228P/I230T/A239V/INS244IISP/L245P/N246D/T247S/R250L/E253A/A261S/P266S/A267P/F272R/V273I/T276I/F277P/S280H/E283V/P287A/N288K/V291P): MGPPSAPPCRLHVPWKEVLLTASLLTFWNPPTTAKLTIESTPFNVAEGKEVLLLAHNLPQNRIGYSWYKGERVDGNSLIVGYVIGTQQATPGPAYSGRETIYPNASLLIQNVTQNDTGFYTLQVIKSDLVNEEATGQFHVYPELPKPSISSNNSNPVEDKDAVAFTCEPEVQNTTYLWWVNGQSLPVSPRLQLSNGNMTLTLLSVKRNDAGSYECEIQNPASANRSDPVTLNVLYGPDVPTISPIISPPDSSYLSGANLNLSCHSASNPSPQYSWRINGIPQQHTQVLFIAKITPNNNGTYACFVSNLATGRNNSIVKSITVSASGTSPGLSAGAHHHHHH
Protocol: as §1

CHIM [3] = biological target: T2, CHIM; experiment: as above; assay type: binding; conditions: Table 11, SPR to CHIM
CEA = biological target: T3, CEA (Homo sapiens, UniProt P06731); experiment: SPR affinity measurement of BGA6710 variants; assay type: binding; conditions: BGA6710 variants in IgG format
T3 construct: 6xHis (C)
T3 sequence (P06731 with tags, fused parts or gaps limits assumed): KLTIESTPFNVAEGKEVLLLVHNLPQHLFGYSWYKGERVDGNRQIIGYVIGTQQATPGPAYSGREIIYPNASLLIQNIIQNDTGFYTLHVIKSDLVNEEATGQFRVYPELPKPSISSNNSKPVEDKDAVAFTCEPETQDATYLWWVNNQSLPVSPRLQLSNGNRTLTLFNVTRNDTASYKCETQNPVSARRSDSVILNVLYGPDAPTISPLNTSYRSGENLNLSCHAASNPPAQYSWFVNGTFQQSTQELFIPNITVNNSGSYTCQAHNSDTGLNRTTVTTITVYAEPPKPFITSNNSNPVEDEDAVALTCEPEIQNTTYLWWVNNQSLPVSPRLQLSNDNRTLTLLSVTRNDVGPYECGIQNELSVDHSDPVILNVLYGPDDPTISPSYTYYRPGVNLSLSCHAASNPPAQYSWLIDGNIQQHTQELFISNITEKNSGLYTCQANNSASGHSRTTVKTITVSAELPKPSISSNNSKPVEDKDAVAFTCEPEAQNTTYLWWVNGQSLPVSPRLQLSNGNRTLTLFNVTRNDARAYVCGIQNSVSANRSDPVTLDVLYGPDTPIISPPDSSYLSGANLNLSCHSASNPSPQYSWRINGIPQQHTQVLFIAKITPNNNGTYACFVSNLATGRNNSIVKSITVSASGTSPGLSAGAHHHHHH
Text: To further improve the biochemical/biophysical properties, optimization of BGA6710 was made by introducing substitutions in CDR and framework regions (Table 13). The large, hydrophobic residues were chosen and changed to polar residues, except for K13 and Q53, which are selected based on observed differences among human VH germlines. The considerations include amino acid compositions, heat stability (Tm), surface hydrophobicity and isoelectronic points (pIs) while maintaining functional activities. The variants were expressed in Fab format by cloning into the vector pCANTAB-5E as described in Example 6. The Fab-containing supernatants were then screened by ELISA and SPR analysis for CEA binding.
Thus, the BGA6710 variants in IgG format with single identified mutation or combinations were expressed and purified as described in Example 8.

## CC[C@@]1(O)C(=O)OCc2c1cc1n(c2=O)Cc2c-1nc1cc(F)c(C)c3c1c2[C@@H](NC(=O)CO)CC3 [P2, DXD]
MKN45 cells
  EC50: 2.08 nM
  Emax: 98.1%

B1: BGA7592-1F-ph-L (BGA3676): affinity matured clone of BGA7592-1F, "(SEQ ID NO:95)", "improved affinities to huCEA surface protein" (protein)
chain: DIQMTQSPSSLSASVGDRVTITCRASENQYGYLAWYQQKPGKVPKLLIYNFKNLVEGVPSRFSGSGSGTDFTLTISSLQPEDVATYYCQHHLGTPYTFGQGTKVEIK
modifications: Synthetic: BGA7592-1F-ph-L VL
[1]
  affinities to huCEA surface protein: improved affinities
CHIM [2]
  Ka: 6700 M⁻¹ s⁻¹
  Rmax: 184 RU

B2: BGA7592-1F-ph-M (BGA2433): affinity matured clone of BGA7592-1F, "(SEQ ID NO:96)", "improved affinities to huCEA surface protein"; template for further engineering (protein)
chain: B1 chain with F51T
modifications: Synthetic: BGA7592-1F-ph-M VL
notes: template for further engineering
CHIM [3]
  Ka: 19700 M⁻¹ s⁻¹
  Rmax: 97.2 RU
[1]
  affinities to huCEA surface protein: improved affinities
CHIM [2]
  Ka: 2500 M⁻¹ s⁻¹
  Rmax: 224 RU

B3: L92E: BGA6710 variant in IgG format, L92E in the light chain, "slightly reduces the binding affinity to CEA" (antibody, V domains shown)
VH: QVQLVQSGAEVKKPGASVKVSCKASGYIFTSYYLHWVRQAPGQGLEWIGYINPQTGYTSYAQKFQGRVTMTRDTSTSTVYMELSSLRSEDTAVYYCAREYGNYNYPLDYWGQGTLVTVSS
VL: B1 chain with F51Y, L92E
CEA
  Kinetics (huCEA) ka: 41700 M⁻¹ s⁻¹
  Kinetics (huCEA) kd: 0.000188 s⁻¹
